Reference: US20160046706A1 (MEDICAL AND BIOLOGICAL LABORATORIES, published 2016)

T1: human NRG1-α protein (full length, HA tag at the N-terminus, on NRG1-a/st293T cells) (human, UniProt Q02297 20-640)
T1 construct: also called NRG1 isoform 2; HA-NRG1-a/st293T; not shown: HA tag added to the N-terminus
T1 sequence: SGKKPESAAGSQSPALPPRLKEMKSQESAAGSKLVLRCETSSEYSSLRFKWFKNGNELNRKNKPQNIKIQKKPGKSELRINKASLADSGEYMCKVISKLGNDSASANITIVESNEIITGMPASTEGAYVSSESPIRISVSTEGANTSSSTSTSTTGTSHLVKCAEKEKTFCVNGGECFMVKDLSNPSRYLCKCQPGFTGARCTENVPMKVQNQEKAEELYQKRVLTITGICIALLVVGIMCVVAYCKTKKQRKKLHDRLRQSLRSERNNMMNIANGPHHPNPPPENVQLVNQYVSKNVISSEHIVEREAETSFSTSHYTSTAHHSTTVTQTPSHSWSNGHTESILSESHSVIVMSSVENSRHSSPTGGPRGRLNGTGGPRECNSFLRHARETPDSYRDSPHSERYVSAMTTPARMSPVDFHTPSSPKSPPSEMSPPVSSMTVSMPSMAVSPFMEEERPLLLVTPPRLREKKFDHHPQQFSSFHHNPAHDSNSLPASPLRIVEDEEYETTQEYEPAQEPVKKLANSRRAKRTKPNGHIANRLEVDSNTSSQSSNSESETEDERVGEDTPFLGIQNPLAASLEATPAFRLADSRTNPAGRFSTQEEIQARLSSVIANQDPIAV

T2: AREG (amphiregulin; R&D Systems 262-AR-100/CF) (UniProt P15514 101-198)
T2 construct: Bought protein
T2 sequence (looked up): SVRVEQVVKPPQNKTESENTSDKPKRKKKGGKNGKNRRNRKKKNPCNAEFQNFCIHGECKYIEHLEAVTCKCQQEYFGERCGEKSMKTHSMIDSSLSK

T3: agPa (synthetic peptide containing the cleavage region of NRG1-a, bound to KLH); positions 221 to 244 of the … (human, bound to KLH)
T3 peptide: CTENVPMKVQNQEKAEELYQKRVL

T4: human NRG1-β1 protein (full length, HA tag at the N-terminus, on NRG1-b/st293T cells) (human, UniProt Q02297 20-640)
T4 construct: also called NRG1 isoform 1; HA-NRG1-b/st293T; not shown: HA tag added to the N-terminus
T4 sequence: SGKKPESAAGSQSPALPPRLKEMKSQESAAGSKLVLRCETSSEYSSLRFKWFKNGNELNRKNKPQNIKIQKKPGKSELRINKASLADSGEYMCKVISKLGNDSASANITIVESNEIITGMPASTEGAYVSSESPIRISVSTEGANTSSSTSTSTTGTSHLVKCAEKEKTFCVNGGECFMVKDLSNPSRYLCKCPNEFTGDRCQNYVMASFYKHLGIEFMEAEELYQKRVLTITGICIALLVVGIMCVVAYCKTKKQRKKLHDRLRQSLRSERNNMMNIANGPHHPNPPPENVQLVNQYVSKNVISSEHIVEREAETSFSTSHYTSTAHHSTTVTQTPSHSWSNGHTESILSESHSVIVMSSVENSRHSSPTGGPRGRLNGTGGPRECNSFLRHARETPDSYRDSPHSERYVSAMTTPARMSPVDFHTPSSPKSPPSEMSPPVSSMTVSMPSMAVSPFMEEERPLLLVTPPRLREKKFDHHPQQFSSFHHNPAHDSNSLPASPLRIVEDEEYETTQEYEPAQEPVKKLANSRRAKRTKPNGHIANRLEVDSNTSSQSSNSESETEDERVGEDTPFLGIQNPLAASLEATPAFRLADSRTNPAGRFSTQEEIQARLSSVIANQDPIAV


Tests used:
[1] = target: T1, human NRG1-α protein (full length, HA …); assay: ELISA on partial-length proteins and flow cytometry on NRG1-a/st293T cells (FIGS. 5 to 7)
[2] = target: T2, AREG (amphiregulin; R&D Systems …); assay: ELISA, factor on the plate at 0.5 µg/mL (FIG. 8)
Procedure: (§1) After the solution was removed, 1% BSA (manufactured by Nacalai Tesque, Inc.: 01863-35)—5% Sucrose (manufactured by WAKO PURE CHEMICAL […], LTD.)—PBS was added in an amount of 150 μL/well, and left to stand at room temperature for 2 hours to block the remaining active groups. After the resultant was left to stand, the solution was removed, and the hybridoma culture supernatant was dispensed as a primary antibody in an amount of 50 μL/well and left to stand for 1 hour. After the plate was washed with 0.05% Tween 20-PBS, an HRP-labeled anti-mouse IgG antibody (manufactured by MBL Co., Ltd.: 330) having been diluted 10000 times was added as a secondary antibody in an amount of 50 μL/well and left to stand at room temperature for 1 hour. After the plate was washed with 0.05% Tween 20-PBS, a color developing solution (5 mM sodium citrate, 0.8 mM 3.3′.5.5′-tetramethylbenzidine-2HCl, 10% N,N-dimethylformamide, 0.625% polyethylene glycol 4000, 5 mM citric acid monohydrate, 5 mM H2O2) was added thereto in an amount of 50 μL/well and left to stand at room temperature for 20 minutes to develop a color. The color development was terminated by adding 1 M phosphoric acid in an amount of 50 μL/well. Then, the absorbance at 450 nm was measured using a plate reader (manufactured by Thermo Fisher Scientific Inc.).
(§2) As described above, any homology with the NRG1 protein is low in the EGF domain. Nonetheless, 8a4, 10bM3, and 10b2M3 capable of recognizing the vicinity of the EGF domain were analyzed for the reactivity with the other factors of the EGF family by the same ELISA as above. To be more specific, each of EGF (manufactured by R&D Systems, Inc.: 236-EG-200), HB-EGF (manufactured by R&D Systems, Inc.: 259-HE-050/CF), TGF-alpha (manufactured by R&D Systems, Inc.: 239-A-100), AREG (manufactured by R&D Systems, Inc.: 262-AR-100/CF), NRG1-α (manufactured by R&D Systems, Inc.: 296-HR-050/CF), or NRG1-b (manufactured by R&D Systems, Inc.: 296-HB-050/CF) was dispensed in a 96-well ELISA plate in an amount of 0.5 μg/mL, that is, 50 μL/well, and immobilized thereto, for detection of the reaction with each antibody in amounts of 10 μg/mL and 1 μg/mL.

[3] = target: T5, HB-EGF (heparin-binding EGF-like growth factor; R&D Systems 259-HE-050/CF) (UniProt Q99075 63-148); assay: ELISA, factor on the plate at 0.5 µg/mL (FIG. 8)
T5 construct: Bought protein
Procedure: as §1, §2

[4] = target: T6, TGF-alpha (transforming growth factor α; R&D Systems 239-A-100) (UniProt P01135 40-89); assay: ELISA, factor on the plate at 0.5 µg/mL (FIG. 8)
T6 construct: Bought protein; also called TGFα; TGF-α
Procedure: as §1, §2

[5] = target: T7, EGF (R&D Systems 236-EG-200) (UniProt P01133 971-1023); assay: ELISA, factor on the plate at 0.5 µg/mL (FIG. 8)
T7 construct: Bought protein
Procedure: as §1, §2

[6] = target: T3, agPa (synthetic peptide containing the …); assay: ELISA, partial-length NRG1 protein on the plate (FIG. 4)
Procedure: Hybridomas producing anti-NRG1 antibodies were selected by the enzyme-linked immunosorbent assay (ELISA). The assay used the recombinant human NRG1 proteins as immunogens, which had been dispensed in a 96-well ELISA plate (manufactured by nunc A/S) in an amount of 0.5 μg/mL, that is, 50 μL/well, and left to stand at room temperature for 2 hours or 4° C. overnight for adsorption. After the solution was removed, 1% BSA (manufactured by Nacalai Tesque, Inc.: 01863-35)—5% Sucrose (manufactured by WAKO PURE CHEMICAL […], LTD.)—PBS was added in an amount of 150 μL/well, and left to stand at room temperature for 2 hours to block the remaining active groups. After the resultant was left to stand, the solution was removed, and the hybridoma culture supernatant was dispensed as a primary antibody in an amount of 50 μL/well and left to stand for 1 hour. […] Then, the absorbance at 450 nm was measured using a plate reader (manufactured by Thermo Fisher Scientific Inc.).
The sequences recognized by 8a2, 8a4, 10bM3, and 10b2M3 were analyzed by evaluating the reactivity with the recombinant NRG1 proteins. To be more specific, the analysis was performed using multiple partial-length NRG1 proteins, and the reactivity of each antibody with these was detected by the same enzyme-linked immunosorbent assay (ELISA) as above. […] The vertical axis represents the absorbance.

[7] = target: T4, human NRG1-β1 protein (full length, HA …); assay: flow cytometry on NRG1-b/st293T cells

T7 sequence (P01133 971-1023 limits assumed): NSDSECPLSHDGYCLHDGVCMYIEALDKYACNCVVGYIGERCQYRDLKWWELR
T6 sequence (P01135 40-89 limits assumed): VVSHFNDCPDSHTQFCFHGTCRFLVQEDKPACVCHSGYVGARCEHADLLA
T5 sequence (Q99075 63-148 limits assumed): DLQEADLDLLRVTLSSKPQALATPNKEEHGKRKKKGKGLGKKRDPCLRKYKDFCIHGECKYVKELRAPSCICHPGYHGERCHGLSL

Row | binding result [1] | binding result [6] | binding result [7] | Binder | binding result [2] | binding result [3] | binding result [4] | binding result [5]
1 | no binding | – | – | 10b2M3 (antibody, mouse IgG1, V domains shown, Mouse monoclonal antibody; Variable genes were amplified with mouse IgG1 CH1 and kappa constant region primers; The printed VL ends at ...GTKL; also called 10b2M3 antibody) VH: QVQLQQSGPELVKPGASVKISCKASGYAFSSSWMNWVKQRPGKGLEWIGRIYPGDGDIYYNGKFKGKATLTADKSSSTAYMQLNSLTSEDSAVYFCARTFNYPFFAYWGQGTLVTVSS VL: DILMTQSPSSLTVSTGEKVTMSCKSSQSLLASANQNNYLAWHQQKPGRSPKMLIIWASTRVSGVPDRFIGSGSGTDFTLTINSVQAEDLAVYYCQQSYSAPTTFGAGTKL | no binding (tested: 10 µg/mL and 1 µg/mL) | no binding (tested: 10 µg/mL and 1 µg/mL) | no binding (tested: 10 µg/mL and 1 µg/mL) | no binding (tested: 10 µg/mL and 1 µg/mL)
2 | – | binds | no binding (tested: 5 µg/mL) | 8a4 (antibody, mouse IgG1, V domains shown, Mouse monoclonal antibody; Variable genes were amplified with mouse IgG1 CH1 and kappa constant region primers; The printed VL ends at ...GTKL; also called 8a4 antibody) VH: EVQLQQSGADLVRPGASVKLSCTASGFNIKDDYIHWVKQRPEQGLEWIGWIDPENGDTEYASQFQGKATITADTSSNTAYLQLRSLTSEDTAVYYCTTSDHRAWFAFWGLGTLVTVSS VL: DVLMTQTPLSLPVSLGDQASISCRSSQTIVHRNGNTYLEWYLQKPGQSPKLLIYRVSNRFSGVPDRFSGSGSGTDFTLKISRVEAEDLGVYYCFQGSHVPLTFGAGTKL | no binding (tested: 10 µg/mL and 1 µg/mL) | no binding (tested: 10 µg/mL and 1 µg/mL) | no binding (tested: 10 µg/mL and 1 µg/mL) | no binding (tested: 10 µg/mL and 1 µg/mL)
3 | no binding | – | – | 10bM3 (antibody, mouse IgG1, V domains shown, Mouse monoclonal antibody; Variable genes were amplified with mouse IgG1 CH1 and kappa constant region primers; The printed VL ends at ...GTKL) VH: EVQLVESGGGLVKPGGSRKLSCAASGFTFSDYGIHWVRQAPEKGLEWLAYISSGSSTIYYADTVKGRFTISRDNAKNTLFLQMTSLRSEDTAMYYCARGSNYVGYYAMDYWGQGTSVTVSS VL: DIVMTQSPSSLAVTAGEKVTMRCKSSQSLLWSVNQKNYLSWYQQKEGQSPKLLIYGASIRESWVPDRFTGSGSGTDFTLTISNVHAEDLAVYYCQHNHGRFLPLTFGGGTKL | no binding (tested: 10 µg/mL and 1 µg/mL) | no binding (tested: 10 µg/mL and 1 µg/mL) | no binding (tested: 10 µg/mL and 1 µg/mL) | no binding (tested: 10 µg/mL and 1 µg/mL)
